For 15 sequences, protein production results are on record in a protein production outcome set (Wang et al. 2014).

The data set is described as follows: label from the status in PepcDB records.
For the sequence “MHNFEEELTCPICYSIFEDPRVLPCSHTFCRNCLENILQASGNFYIWRPLRIPLKCPNCRSITEIAPTGIESLPVNFALRAIIEKYQQEDHPDIVTCPEHYRQPLNVYCLLDKKLVCGHCLTIGQHHGHPIDDLQSAYLKEKDTPQKLLEQLTDTHWTDLTHLIEKPKEQKSHSEKMIQGDKEAVLQYFKELNDTLEQKKKSFLTALCDVGNLINQEYTPQIERMKEIREQQLELMALTISLQEESPLKFLEKVDDVRQHVQILKQRPLPEVQPVEIYPRVSKILKEEWSRTEIGQIKNVLIPKMKISPKRMSCSWPGTPVYSVAWGPDSEKVLYTAGKQLIIKPLQPNAKVLQWKAHDGIILKVDWNSVNDLILSAGEDCKYKVWDSYGRPLYNSQPHEHPITSVAWAPDGELFAVGSFHTLRLCDKTGWSYALEKPNTGSIFNIAWSIDGTQIAGACGNGHVVFAHVVEQHWEWKNFQVTLTKRRAMQVRNVLNDAVDLLEFRDRVIKASLNYAHLVVSTSLQCYVFSTKNWNTPIIFDLKEGTVSLILQAERHFLLVDGSSIYLYSYEGRFISSPKFPGMRTDILNAQTVSLSNDTIAIRDKADEKIIFLFEASTGKPLGDGKFLSHKNEILEIALDQKGLTNDRKIAFIDKNRDLCITSVKRFGKEEQIIKLGTMVHTLAWNDTCNILCGLQDTRFIVWYYPNTVYVDRDILPKTLYERDASEFSKNPHIVSFVGNQVTIRRADGSLVHISITPYPAILHEYVSSSKWEDAVRLCRFVKEQTMWACLAAMAVANRDMTTAEVAYAAIGEIDKVQYINSIKNLPSKESKMAHILLFSGNIQEAEIVLLQAGLVYQAIQININLYNWERALELAVKYKTHVDTVLAYRQKFLETFGKQETNKRYLHYAEGLQIDWEKIKAKIEMEITKEREQSSSSQSSKSIGLKP”, the protein production entry is “failed”. Under “MHPALVLAAIALIAIKLDPRFVLGLLVLLTLIYGKKRGFSLKLRNVTEDESYFNAFLFSTILSALSCFSLPKDVVFASIFLISVHNYRKNALWNIAVYTTASLLYFLCYHAVNGVELRLAHTFFISLSGGLTAALVESVDTNADRRLTLLLAISSVFTIFKMYVPSASIYSLAFAFLLSFFVSLLALYAKVADESGLMSATIVGTTLILFADIRFFAVILLFYALGSAITKYKYSVKLERGIAEQAGGARGYANVFGNSLAPLFFAVQFGVSGDAIFAAAFVAAVAAALADTMASEIGKAEEKVYLITNFSRVEPGTSGGISVKGEFAALFGCIVTALLSLLLGIIGFDVLLPVTLSAFAGVHIDSLLGATLEKKGYLTNSAVNFLGTLSAGIICVLLLLPLL” stands “failed”; under “MHQQIIKFWFEELTPQNWFENNPELDKHIASRFASVLEQAARCELFNWRDSAQGRLAEIIVLDQFSRNVYRNTPKAFAQDPLALALAQEAIRLGHDQELAPEQLSFLYMPFMHSESRLIHVEAEKLFRASGLENNYDFELKHKAIIDQFGRYPHRNAILGRESTPEELAFLQQPGSSF”, “not failed”.

On to “MHRTTRIKITELNPHLMCVLCGGYFIDATTIIECLHSFCKTCIVRYLETSKYCPICDVQVHKTRPLLNIRSDKTLQDIVYKLVPGLFKNEMKRRRDFYAAHPSADAANGSNEDRGEVADEDKRIITDDEIISLSIEFFDQNRLDRKVNKDKEKSKEEVNDKRYLRCPAAMTVMHLRKFLRSKMDIPNTFQIDVMYEEEPLKDYYTLMDIAYIYTWRRNGPLPLKYRVRPTCKRMKISHQRDGLTNAGELESDSGSDKANSPAGGVPSTSSCLPSPSTPVQSPHPQFPHISSTMNGTSNSPSGNHQSSFANRPRKSSVNGSSATSSG”, for which the protein production entry is “failed”. For the sequence “MHSLARRALHTCNVPRDLNPVTFCDTAGEHPDRVGLDSNAAEAVWRSVEALYRTGVHPGIQLSLRYRGEQVLHRSIGHARGNGPHDPASLPRIPMTTDTPICFFSASKAVTALLMHMLSEQGLVNLMDPVSYYCPEFARNGKRTITVHQILSHRGGIPAIPRETPIDVLWDRDEIWRLLCAAKPVEVDGAKVAYHAITGGFVLQRVLEKVTGDTIESYLDRYLRRPMGMKWFTYGIAPEHLHELASNYATGPTPRFPVSWVVNRALGGDIRTVEKVTNDPRFQEAVIPAGNLCGTAEEMGRFFQMMLNGGSWDGKRICSELTVRRAIQQFGSLQMDRTMLVPMRFSAGMMLGSNPVGLWGQQSRYAFGHVGLINKLCWADPARDISVSLLNTGFPIVGHHLPALARFVYTVCKQFPVLPENQRRLVAA”, the protein production entry is on record as “failed”. Take “MHSMKLLVTGGMGFIGSNFIRYILEKHPDWEVINIDKLGYGSNPANLKDLEDDPRYTFVKGDVADYELVKELVRKVDGVVHLAAESHVDRSISSPEIFLHSNVIGTYTLLESIRRENPEVRFVHVSTDEVYGDILKGSFTENDRLMPSSPYSATKAASDMLVLGWTRTYNLNASITRCTNNYGPYQFPEKLIPKTIIRASLGLKIPIYGTGKNVRDWLYVEDHVRAIELVLLKGESREIYNISAGEEKTNLEVVKIILRLMGKGEELIELVEDRPGHDLRYSLDSWKITRDLKWRPKYTFDEGIKKTIDWYLKNEWWWKPLVDERILHPTPWKLKW”: the protein production entry is recorded as “not failed”. Under “MHSPLELTLVLLAAAVIGVVLFRMLQLPPMLAYLVVGVVIGPNATGLESDSAQTRYLAEFGVVFLMFSIGLEFSLAKLRSMRRLVLGLGASQVVLTMLLTVPASLLLSRWYPLSWQASLALGGALAMSSTAIVSKMLAERLQLETEHGRNIISVLLFQDLAVVLLLIVVPSLGKNPTDLVLTLSIAAVKIIVALVLILFLGQKLLSRWFHLVAARRSQELFMLNLLLVTLGMAALTERLGLSMALGAFLAGMLVSETPYRLQVEEDIKPFRDVLLGLFFVTVGMLLDPRVVIGHWGLVIGLVIGPVLFKFALIALLARAFGSGGGTAIRTALGLAQAGEFGFVLLNQIDGMRLIDPLLSQAILAAMLLSMLLAPFLIQYSDAIAMRLSRTDWLMQSLAMTKIAAQSLQTERHVIICGYGRSGQNLAHMLEQEDISYVALDLDPDRVRDAAAAGERVVYGDAARRESLVAAGVHRAAAVAVTYADTASALKVLHHVQALAPTLPVIVRTIDDADLDRLQQAGAAEVVPEIIEGSLMLASHALVLLGVPLRRVVRRAQEMRDARYGLLRGYFHGQDDDEDMLERDAVRLHSVPLIKGSPAIGRPLGTLGLETFKTSVTAIRRQGIRALDPEPNTLLELGDIVVLRGTPDGLQQAEERLSPR” stands “failed”; under “MHSPQISPPIAPSTPLLAGWRSAGKAPEAAIRGEAVSLQPLDAPRHGAALFRLFAGDDSHWEHLPYGPFEDEDAFITWLALTVAQSDTALYVVCAKDSDQALGFLGYRQMVQAHGAIEIGHVNFSPALRRTRLATEAVFLLLKTAFELGYRRCEWRCDSRNAASAAAARRFGFQFEGTLRQAMVVKRRNRDTHVFSMLDGEWDALK”, “not failed”. Next, “MHSQFAPRLRQLRWYEIVLIATVAAALCIYLPIVVKRSAVQGFGDVQVFFRAAWAVWTGYPLYQVADHHGWTYHYPPTFALLMGPFAHPLDGFPKPDWALSLPLSVATWYVFSAAAMLAAVDLWARGLERALPPSLDQADWSAWWLLRLGPVAALLPFFGDGLGRGQPSAVVLLTMVAFLVLYLRGRIYLAACALALGFTIKLFPLALLIFPVLRRDLRTVLATFGFSAVFLFVVPMLCLGPSEVVKLYGAMWTEHLSGIFTGVPNPKIADEITFTSYDMLSIGAMLARIAAGGLPETDTLPRFATICQLMFDAVVIGALLWLGHGRFWRLRGPQPPLGPSLLIGGALLCAALPVMLSVSQPNYVAFAAPLVALVQFEVWRRRGRVCVVPALIAWSGLMWLGMIATEGGAWQPLRVVGLVTPALIALLLWGFASLRRAAAPP”: “failed”; “MHSQIWVVSTLLISIVLIVLTIVKFKFHPFLALLLASFFVGTMMGMGPLDMVNAIESGIGGTLGFLAAVIGLGTILGKMMEVSGAAERIGLTLQRCRWLSVDVIMVLVGLICGITLFVEVGVVLLIPLAFSIAKKTNTSLLKLAIPLCTALMAVHCVVPPHPAALYVANKLGADIGSVIVYGLLVGLMASLIGGPLFLKFLGQRLPFKPVPTEFADLKVRDEKTLPSLGATLFTILLPIALMLVKTIAELNMARESGLYILVEFIGNPITAMFIAVFVAYYVLGIRQHMSMGTMLTHTENGFGSIANILLIIGAGGAFNAILKSSSLADTLAVILSNMHMHPILLAWLVALILHAAVGSATVAMMGATAIVAPMLPLYPDISPEIIAIAIGSGAIGCTIVTDSLFWLVKQYCGATLNETFKYYTTATFIASVVALAGTFLLSFII”: “failed”; “MHSREYPFMLASMMFDFACLQISSLWERLLGAIGDAAGNALGRVVEAIRTLFEGDPETRRKVSFSVAIIALSAKMAKADGVVNDAEVRAFRQIFDFPDEEAKNVARLYNLARQDVAGYEAYAERLAGLCGSGHANCEMLESVIDGLFHIAKADGLIHERELAFLGRIAEIFRITEDHFETIMARHVHMDGRDPYRVLGVSPSDDFLDIRKRYRSLVAEHHPDKLIARGVPMELHAAANERMAALNAAYAAIEKERRVA”: “failed”. Under “MHTLNLGILAHVDAGKTSLTERLLHTVGVIDEIGSVDEGNTQTDSLALERQRGITIKSAVVSFAINDTTVNLIDTPGHPDFIAEVERVLSVLDGAVLVVSAVEGVQAQTRVLLRTLQRLRIPTLLFVNKIDRGGAGEERVLRAIAARLTPAIVPMGRAAGPGSRDARFIPYEAHDPGFGARLLDVLTEHDEELLAAYVKDTVSYGRLRTALVEQTRQALVHPVFFGSATTGAGVPELIAGIKELLPAAEGDPDGPVSGTVFKVERGPAGEKIAYARLFSGTVRTRDRLLFRDGEEGKVTAISVFDQGSAVREASVAAGRIGKLWGLAEIRIGDTFGEVPKAAEPSRHFSPPTLETVVVPGGRSDGGALHLALTQLAEQDPLINMRQDEIRREISLSLYGEVQKEVIQATLADAFGLDVTFRETTPICVERPVGTGAAVEFNGKGPHPFLATVGLRVEAAPVGSGVEFRLEVELGAMPYAFFKAVEDTVRETLGQGIHGWRVTDCTVTMTHSGYSPRQSHAHQGFDKSMSSTGADFRGLTPLVLMDALRQAGTRVHEPLHRFGLEAPADTLGAVLPVLAGLRAVVRTTRMREAVCVLEGLVPAAHVHELGQVLPGLTRGEGELETAFDHYAPVAGGTVPNRPRTDHNPLDRKEYLLNVTRRVGT” stands “failed”; under “MHTLVFLSTRQVLQCQPAACQALPLLPRELFPLLFKVAFMDKKTVVLRELVHTWPFPLLSFQQLLQECAHCSRALLQERPSTESMQAVILGLTARLHTSEPGASTQPLCRKHALRVLDMTGLLDDGVEQDPGTMSMWDCTAAVARTCIAQQQGGAAEPGPAPIPVEVRVDLRVNRASYAFLREALRSSVGSPLRLCCRDLRAEDLPMRNTVALLQLLDAGCLRRVDLRFNNLGLRGLSVIIPHVARFQHLASLRLHYVHGDSRQPSVDGEDNFRYFLAQMGRFTCLRELSMGSSLLSGRLDQLLSTLQSPLESLELAFCALLPEDLRFLARSPHAAHLKKLDLSGNDLSGSQLAPFQGLLQASAATLLHLELTECQLADTQLLATLPILTQCASLRYLGLYGNPLSMAGLKELLRDSVAQAELRTVVHPFPVDCYEGLPWPPPASVLLEASINEEKFARVEAELHQLLLASGRAHVLWTTDIYGRLAADYFSL”, “failed”. In the case of “MHTTFTFHLYPWILKYLKGGEGNFKYLHQENPKQEITDSSDKMSFWKDRMLIIPAVDIKDGKCVQLVQGKPGTEQVVLDDPAGVAGRWESLGAETIHVVDLDGALGLEKNTGILKEITERVSVPLQIGGGIRSREYAGKLLDMGFERVILGTMAIENPAIVEELAGEYGSERIMVSLDSRDSRVVIRGWTEKVPFTAEEMARKFQERGAGSILFTNVDFEGLLSGFDLKPVSELVEAVEIPVIYSGGVSSLNDLRMLQGTGVMGVVIGSAIYRGLIDLTEALKYQDLK”, the protein production result is given as “failed”. Next, “MHVLTLDLAPVTPKDAPLLHRVFHLSPSYFALIGMELPTLEDVVRDLQTLEVDPRRRAFLLFLGQEPVGYLDAKLGYPEAEDATLSLLLIREDHQGRGLGRQALERFAAGLDGVRRLYAVVYGHNPKAKAFFQAQGFRYVK”: “failed”.
